Reference: the DeepSol protein solubility set

Assay: soluble on expression in E. coli; label from the status in PepcDB or PDB records
In the case of “MGSDKIHHHHHHMRTNKVVWSEGLFLRPQLFQQQERYLEYYAHKRAATITPFFWGFAQYEIDREALSYGKLVLRSGKGVLPDGTPFDIPGHAELPEPLTITPDHLGKLIYLAVPLRLDNSDETIFDEYDMSSLARFYAYEADLSDTNAIRQGPKPVQLSRLRLKLVSESEMTESWIGLPLAKVRAIQPDGSVLLHLEDYIPPVTGYAASSLLSEWLTHLNGLVKMRADMLAKRLSNSDGKASASAEIVDYLLLQIFNKYEPSLDHLRNIPELPPIVLYQELAKFAGELSTFIRTKTRRPRPAPGYDHGKLYPSIRPLVDDVHELLNQILVRAGQMIPLEPKGNGVWSASVLPNELRSFSNLVLAVHAQLPMDVLQHQFSVQTKISAPQQLHELVRSHLPGLELQRLPVPPRQIPYSAGYVYFELMKSGPFWDKVSNAGAIALHVAGDFPALKMELWGIRDS”, the “soluble on expression in E. coli” value was “not soluble”. For “MSKLQQILTYLESEKLDVAVVSDPVTINYLTGFYSDPHERQMFLFVLADQEPLLFVPALEVERASSTVSFPVVGYVDSENPWQKIKHALPQLDFKRVAVEFDNLILTKYHGLKTVFETAEFDNLTPRIQRMRLIK”, the “soluble on expression in E. coli” value was “soluble”. With “MSDSLPQRNGGQILVEALRRNAVDTVYCIPGESYLPVLDALYDTDGIRTVVTRHEGAASNMADAYGKLTGRPGICFVTRGPGATHAANGVHTAQQDSTPMILFVGQVESAFKGREAFQEVDYVQMFSGLAKWAVEIDRIERIPEIVGRAFSVATSGRPGPVVVALPEEILFGSAQVADAPEPRVLPGRPGATAMAELRELLANARRPLLVLGGSGWDSAARKRLGAFVEANGLPVATSFRRQDLFDNRDPHYAGQLGFGAAPALLERLRQADLLLVVGARLGETPSAGYSLVRSPAPAQTLIHVHPDSAELNRVYLARLPIQATPCAFAEALADLAPLPSSTWQDWREAAHADYLAYSTPAASDPAVQGVDLASVVAYLSENLPDDAVIANGAGNYAVWVHRFYRYRQARTQLAPTNGAMGYGLPAAIAASLRDPQRSVVCFAGDGCFMMYPQELATAAQFGATPVVIVVNNGMLGTIRMHQEREYPGRVSATRLDNPDFVALARAFGAHAERVECSADFPAAFRRARESGRPALLELLTDPRQITPQA” the “soluble on expression in E. coli” value was “not soluble”. In the case of “MTPGGQAQIGNVDLVKQLNSAAVYRLIDQYGPISRIQIAEQSQLAPASVTKITRQLIERGLIKEVDQQASTGGRRAISIVTETRNFHAIGVRLGRHDATITLFDLSSKVLAEEHYPLPERTQQTLEHALLNAIAQFIDSYQRKLRELIAISVILPGLVDPDSGKIHYMPHIQVENWGLVEALEERFKVTCFVGHDIRSLALAEHYFGASQDCEDSILVRVHRGTGAGIISNGRIFIGRNGNVGEIGHIQVEPLGERCHCGNFGCLETIAANAAIEQRVLNLLKQGYQSRVPLDDCTIKTICKAANKGDSLASEVIEYVGRHLGKTIAIAINLFNPQKIVIAGEITEADKVLLPAIESCINTQALKAFRTNLPVVRSELDHRSAIGAFALVKRAMLNGILLQHLLEN”, the “soluble on expression in E. coli” value was “soluble”. With “MKISTQSEVEGVLIKALSEGKGIQHVELALKDLPAFDRKRARTTAITEVLTAASVAQQEAFEQSPSVEGKKWKHSGGKGIEPRSSHIELSGKVVQINETFTIPGSGELAKYPRDTDLSASERIHCHCALGPAVNEEIL” the “soluble on expression in E. coli” value was “not soluble”. In the case of “MGSDKIHHHHHHLTYDEIKKNKEVCECLKKGNENLGVLGFTDHSVAHCTMVAKRAAYILKKFGYSESDIEMVKIAGFMHDIGNVVNRSRHAEYGAILANEILKETDMSLKDRITVVSAIGHHDESTGGATDPISAALIIADKTDVRRNRVRNKAKENFDIHDRVNYAVTDAALKINMDKKVIALNLQIDTKICSMYEYFEIFLGRMMMCRGAAEVLGATFKLTANGSKVL”, the “soluble on expression in E. coli” value was “not soluble”. For “MLPFANYYISSPSVSEKNAINNNVNKRRKKKRAMMVYGGGGGGDDLAVVKAAAWAWYLRKEGKPIMREFDVTRAQRIPRPSRYKIEATKNMILSENRVLAENRVSSTKSPLWYTNYQFRGDQETYYSRLLDTYETKNISKRLNIDDSSFSTSLSSVLKHNGDDHHNHNRNDDYGFDDHGLLKKRNGSDSNTTTRSKTNNDKSYNGGFMKKVSKRSLWKGMIVMGPGSTVCGRSDDVASQAGRRTVKVAVAAEALVRSAASGSGKTQSGHC”, the “soluble on expression in E. coli” value was “not soluble”. With “MRDLYPLTRRRLLTAMALSPLLWQMNTAQAAAIDPRRIVALEWLPVELLLALGITPYGVADVPNYKLWVSEPPLPDSVIDVGLRTEPNLELLTEMKPSFMVWSAGYGPSPEKLARIAPGRGFDFSDGKKPLAVARRSLVELAQTLNLEAAAEKHLAQYDRFIASQKPHFIRRGGRPLLMTTLIDPRHMLVLGPNCLFQEVLDEYGIVNAWQGETNFWGSTAVSIDRLAMYKEADVICFDHGNNTDMNALMATPLWQAMPFVRAGRFHRVPAVWFYGATLSTMHFVRILNNVLGGKA” the “soluble on expression in E. coli” value was “not soluble”. For “MINRKIGFIGAGKMGSALMQGIIKAGIVQPENIGASDVYEPFLKELQTKLGIRVSTDNTVIVRESDILILAVKPQTLGSVLENLKNEITSEKLVISIAAGVPLSTYEGALLEGTRVVRVMPNIAATVSEAASGISPGKNATPEDMKDALTIFSAVGTAVQVPESLMDAVTGLSGSGPAFIFPVIEAMADGAVLEGMDRKSALTLAAQTVLGAAKMALETGMHPGELKDMVTSPAGTTIQGVHALEEAGIRAAFMNAVIRASERSRELGKKAAALEHHHHHH”, the “soluble on expression in E. coli” value was “soluble”. In the case of “MGSDKIHHHHHHMKSVSVRSCKTYNYEEVKLSIEKNLEDIGGIDKFVKKGSKVLIKPNLLMKKKPEEATTTHPMVVKVVCEKLLELNCDITIADSPGGPYNQSSLKSIYKASGIEEVANELGIKLNYDVSDVKIHSEKAHVLKYMDIIKPIVDSDYIINLCKLKTHIMATFTGGTKNLYGCIAGLKKAEIHYRFPTEELFCENVLLDICDYIKPTLTIMDGIVGMEGDGPSAGTTREIGVLLASQNPYAIDVVACKIISLLPNRVATIRGAIKRGYIQEDFSDIEILGEDIKDLIIKNYKIPNVSKDLRLFSVKLPKFLNEPISKLITPKPVVRFQDCIKCGKCKEACPASTIEIGTKGAIIDLSKCIRCYCCHELCPKKAIDVKRNFVFKYVK”, the “soluble on expression in E. coli” value was “not soluble”. In the case of “FPDPSFIIDAEGRFLDCLTDPETMLTVDDTDTLVGQTLHEFFPHDTADSLLAAVRAALRTGSFQSVEYKLQVPSDKRWFEARVAPLESRAYDPDTVIFVARDI”, the “soluble on expression in E. coli” value was “not soluble”. With “MAIQVKASLRKNPQDKKAAGKYYAQVVLAPEMTQRQIIDQIADRCTVTGSDVKAVLDALMTVIKRNLANGSPIRLGDLGSFRPSVSGIGSENVDKFTASNVKKARVIYVPSAEIKEAVAMYAFSKVGATAEGGNTEKPGGGDIDNPGGGDEEAPDPTVLEHHHHHH” the “soluble on expression in E. coli” value was “soluble”. For “MRKNILITGVHGYIGNALKDKLIEQGHQVDQINVRNQLWKSTSFKDYDVLIHTAALVHNNSPQARLSDYMQVNMLLTKQLAQKAKAEDVKQFIFMSTMAVYGKEGHVGKSDQVDTQTPMNPTTNYGISKKFAEQALQELISDSFKVAIVRPPMIYGAHCPGNFQRLMQLSKRLPIIPNINNQRSALYIKHLTAFIDQLISLEVTGVYHPQDSFYFDTSSVMYEIRRQSHRKTVLINMPSMLNKYFNKLSVFRKLFGNLIYSNTLYENNNALEIIPGKMSLVIADIMDETTTKDKA”, the “soluble on expression in E. coli” value was “not soluble”. For “SAPPLLSLPLCILPPGSGSPRLVCYCERDSGGDGDRDDFNLYVTDAAELWSTCFSPDSLARLKARFGLSGAEDIHSRFRAACQQQAVTVSLQEDRALITLSGDTPALAFDLSKVPSPEAAPRLQALTLSLAEHVCNLERRLAAAEETITSPKKNTQPAGTQFLPELDHQRGSSGPGVRRRCPGESLINPGFKSKKPAAGVDFDET”, the “soluble on expression in E. coli” value was “soluble”. For “MASISRFRGCLAGALLGDCVGAVYEAHDTVSLASVLSHVESLEPDPGTPGSARTETLYYTDDTAMTRALVQSLLAKEAFDEVDMAHRFAQEYKKDPDRGYGAGVITVFKKLLNPKCRDVYEPARAQFNGKGSYGNGGAMRVAGISLAYSSVQDVQKFARLSAQLTHASSLGYNGAILQALAVHLALQGVSSSEHFLEQLLGHMEELEGDAQSVLDAKELGMEERPYSSRLKKVGELLDQDVVSREEVVSELGNGIAAFESVPTAIYCFLRCMEPHPEIPSTFNSLQRTLIYSISLGGDTDTIATMAGAIAGAYYGMEQVPESWQQSCEGFEETDVLAQSLHRVFQES”, the “soluble on expression in E. coli” value was “soluble”.
